In data set [1] the target is T1, GST-FOXM1 DBD (UniProt Q08050 225-355).
T1 sequence: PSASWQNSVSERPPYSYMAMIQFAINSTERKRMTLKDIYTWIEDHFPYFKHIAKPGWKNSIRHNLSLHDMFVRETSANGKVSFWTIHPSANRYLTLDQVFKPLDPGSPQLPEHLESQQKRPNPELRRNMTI
Put plainly: EMSA; EMSA and FP: 20 mM Tris-Cl, 50 mM KCl, 10% glycerol, 0.5 mM EDTA, 0.2 mM DTT, pH 7.6, 30 min on ice; EMSA 50 nM probe, FP 10 nM probe (50 nM in Fig. 1D legend). To be noted: protein: recombinant; tags: N-terminal GST (pGEX-4T-1); label: 5'-ROX.

Data set [2] addresses T1, GST-FOXM1 DBD. Put plainly: fluorescence polarization; EMSA and FP: 20 mM Tris-Cl, 50 mM KCl, 10% glycerol, 0.5 mM EDTA, 0.2 mM DTT, pH 7.6, 30 min on ice; EMSA 50 nM probe, FP 10 nM probe (50 nM in Fig. 1D legend). To be noted: protein: recombinant, tags: N-terminal GST (pGEX-4T-1).
In another data set the target is T2, His-FOXM1 full-length (UniProt Q08050 1-763).
T2 sequence: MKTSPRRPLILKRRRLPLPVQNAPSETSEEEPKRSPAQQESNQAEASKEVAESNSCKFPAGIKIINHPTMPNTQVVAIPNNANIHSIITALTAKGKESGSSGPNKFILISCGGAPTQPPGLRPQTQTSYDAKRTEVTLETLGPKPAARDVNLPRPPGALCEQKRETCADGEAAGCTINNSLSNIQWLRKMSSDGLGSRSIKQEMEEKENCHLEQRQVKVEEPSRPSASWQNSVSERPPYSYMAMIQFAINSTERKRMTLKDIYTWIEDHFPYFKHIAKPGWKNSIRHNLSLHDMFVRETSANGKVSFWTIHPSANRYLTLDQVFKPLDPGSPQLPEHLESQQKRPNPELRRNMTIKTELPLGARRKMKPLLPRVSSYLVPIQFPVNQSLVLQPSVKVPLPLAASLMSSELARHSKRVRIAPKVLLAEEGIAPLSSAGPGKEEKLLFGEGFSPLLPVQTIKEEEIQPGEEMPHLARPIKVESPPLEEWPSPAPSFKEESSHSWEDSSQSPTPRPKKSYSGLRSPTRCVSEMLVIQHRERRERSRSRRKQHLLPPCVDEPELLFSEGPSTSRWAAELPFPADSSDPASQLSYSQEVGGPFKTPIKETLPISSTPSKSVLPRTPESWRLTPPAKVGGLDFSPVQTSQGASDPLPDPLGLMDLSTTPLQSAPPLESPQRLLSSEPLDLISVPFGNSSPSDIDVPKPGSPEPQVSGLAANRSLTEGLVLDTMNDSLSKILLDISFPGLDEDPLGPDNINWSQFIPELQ
The data set is described as above. The following applies: protein: recombinant, tags: C-terminal His6 (encoded by reverse primer S6).

Where [3] appears, read: label: 5'-ROX (hot) or none (cold).
[4] abbreviates: label: 5'-FAM on forward strand (hot) or none (cold), blunt.

As to TCACTTAAAAAAAAAAAACTCATGAAAAAAAAAAAATCCTTT (ssDNA) [Control Apt], the binding result with GST-FOXM1 DBD [1] was “no binding”.

Regarding TCACTTCACACCGCATCTCTACGTCCGGTTGCGCTTTCCTTT (ssDNA) [FOXM1 Apt (C1)], the Kd came out at 64.8 ± 25.8 nM in the data set with GST-FOXM1 DBD [2] (setting [3]) and 172 ± 26.6 nM with His-FOXM1 full-length (setting [3]). As to TCACTTCACACCGCATCTCTACGTCCGGTTGCGCTTTCCTTT (ssDNA, phosphorothioate internucleotide linkages) [M-FOXM1 Apt], the Kd with His-FOXM1 full-length stood at 63.9 ± 6.6 nM.

B1: FOXM1 dsDNA probe (dsDNA)
DNA 1: TTTGTTTATTTGTTTGTTTATTTG
DNA 2: CAAATAAACAAACAAATAAACAAA
B1: the values for the Kd with GST-FOXM1 DBD [2] (setting [4]) and with His-FOXM1 full-length (setting [4]) were 543 ± 148 nM and 214 ± 249 nM, respectively.

Values taken from paper PMC5371818, “Suppression of FOXM1 Transcriptional Activities via a Single-Stranded DNA Aptamer Generated by SELEX”.
